Non-standard residues stand in square brackets, D forms with d. dBpa = N[C@H](Cc1ccc(C(=O)c2ccccc2)cc1)C(=O)O; dPhe(3,4-F2) = N[C@H](Cc1ccc(F)c(F)c1)C(=O)O; dPhe(3-F) = N[C@H](Cc1cccc(F)c1)C(=O)O; dPhe(4-F) = N[C@H](Cc1ccc(F)cc1)C(=O)O
Each substance was assayed against T1, 20S CP (assay: TAS-1 biochemical assay (20S CP stimulation)). Settings: TAS-1 assay.
T1 construct: purchased South Bay
Protocol: Each compound was initially tested at 10 μM. Each well contained […] of 11.4 μM TAS-1 solution in Tris HCl (50 mM, pH 7.4) along with 5 nM of 20 sCP (South Bay). 1 μL of the test compound, control, or DMSO was added to the desired well to obtain a final DMSO concentration of 2%, with the total volume being 50 μL. Compounds were tested in three replicates that each had technical triplicates. The fluorescence was recorded using a SynergyNeo 2, where the excitation and emission was set to 335 nm and 493 nm. The plate reader was heated to 37° C. The fluorescence was recorded every 90 seconds over a 1-hour period. A simple linear regression was performed on the data plotted against time to obtain the rate of hydrolysis of TAS-1 by the 20S CP. The data was then normalized against DMSO to get the percent stimulation.

Substance | 20S CP stimulatory activity (in words, SAR compared to CyPPS1)
TKFFRA [SEQ ID NO: 11] (cyclo(T[dK]F[dF]R[dA]); SMILES C[C@H]1NC(=O)[C@H](CCCNC(=N)N)NC(=O)[C@@H](Cc2ccccc2)NC(=O)[C@H](Cc2ccccc2)NC(=O)[C@@H](CCCCN)NC(=O)[C@H]([C@@H](C)O)NC1=O) [CyPPS11, cyclic peptide; AA1 Thr, AA2 D-Lys, AA3 Phe, AA4 D-Phe, AA5 Arg, AA6 D-Ala] | decreased activity
TAFFRA [SEQ ID NO: 3] (cyclo(T[dA]F[dF]R[dA]); SMILES C[C@H]1NC(=O)[C@H](CCCNC(=N)N)NC(=O)[C@@H](Cc2ccccc2)NC(=O)[C@H](Cc2ccccc2)NC(=O)[C@@H](C)NC(=O)[C@H]([C@@H](C)O)NC1=O) [CyPPS3, cyclic peptide; AA1 Thr, AA2 D-Ala, AA3 Phe, AA4 D-Phe, AA5 Arg, AA6 D-Ala] | greatest loss of stimulatory activity
TLFXRA [SEQ ID NO: 19] (cyclo(T[dL]F[dPhe(3-F)]R[dA]); SMILES CC(C)C[C@H]1NC(=O)[C@H]([C@@H](C)O)NC(=O)[C@@H](C)NC(=O)[C@H](CCCNC(=N)N)NC(=O)[C@@H](Cc2cccc(F)c2)NC(=O)[C@H](Cc2ccccc2)NC1=O) [CyPPS19, cyclic peptide; AA1 Thr, AA2 D-Leu, AA3 Phe, AA4 D-Phe (3F), AA5 Arg, AA6 D-Ala] | retained activity
TLFFRS [SEQ ID NO: 22] (cyclo(T[dL]F[dF]R[dS]); SMILES CC(C)C[C@H]1NC(=O)[C@H]([C@@H](C)O)NC(=O)[C@@H](CO)NC(=O)[C@H](CCCNC(=N)N)NC(=O)[C@@H](Cc2ccccc2)NC(=O)[C@H](Cc2ccccc2)NC1=O) [CyPPS22, cyclic peptide; AA1 Thr, AA2 D-Leu, AA3 Phe, AA4 D-Phe, AA5 Arg, AA6 D-Ser] | maintained stimulatory activity
TLFYRA [SEQ ID NO: 17] (cyclo(T[dL]F[dY]R[dA]); SMILES CC(C)C[C@H]1NC(=O)[C@H]([C@@H](C)O)NC(=O)[C@@H](C)NC(=O)[C@H](CCCNC(=N)N)NC(=O)[C@@H](Cc2ccc(O)cc2)NC(=O)[C@H](Cc2ccccc2)NC1=O) [CyPPS17, cyclic peptide; AA1 Thr, AA2 D-Leu, AA3 Phe, AA4 D-Tyr, AA5 Arg, AA6 D-Ala] | decline in stimulatory activity
TLYFRA [SEQ ID NO: 16] (cyclo(T[dL]Y[dF]R[dA]); SMILES CC(C)C[C@H]1NC(=O)[C@H]([C@@H](C)O)NC(=O)[C@@H](C)NC(=O)[C@H](CCCNC(=N)N)NC(=O)[C@@H](Cc2ccccc2)NC(=O)[C@H](Cc2ccc(O)cc2)NC1=O) [CyPPS16, cyclic peptide; AA1 Thr, AA2 D-Leu, AA3 Tyr, AA4 D-Phe, AA5 Arg, AA6 D-Ala] | decline in stimulatory activity
TLFXRA [SEQ ID NO: 21] (cyclo(T[dL]F[dBpa]R[dA]); SMILES CC(C)C[C@H]1NC(=O)[C@H]([C@@H](C)O)NC(=O)[C@@H](C)NC(=O)[C@H](CCCNC(=N)N)NC(=O)[C@@H](Cc2ccc(C(=O)c3ccccc3)cc2)NC(=O)[C@H](Cc2ccccc2)NC1=O) [CyPPS21, cyclic peptide; AA1 Thr, AA2 D-Leu, AA3 Phe, AA4 D-BPA, AA5 Arg, AA6 D-Ala] | stimulatory activity was maintained
TIFFRA [SEQ ID NO: 12] (cyclo(T[dI]F[dF]R[dA]); SMILES CC[C@@H](C)[C@H]1NC(=O)[C@H]([C@@H](C)O)NC(=O)[C@@H](C)NC(=O)[C@H](CCCNC(=N)N)NC(=O)[C@@H](Cc2ccccc2)NC(=O)[C@H](Cc2ccccc2)NC1=O) [CyPPS12, cyclic peptide; AA1 Thr, AA2 D-Ile, AA3 Phe, AA4 D-Phe, AA5 Arg, AA6 D-Ala] | lack of activity

Now from value to substance:

20S CP stimulatory activity (in words, SAR compared to CyPPS1) | Substance
decreased activity | TDFFRA [SEQ ID NO: 10] (cyclo(T[dD]F[dF]R[dA]); SMILES C[C@H]1NC(=O)[C@H](CCCNC(=N)N)NC(=O)[C@@H](Cc2ccccc2)NC(=O)[C@H](Cc2ccccc2)NC(=O)[C@@H](CC(=O)O)NC(=O)[C@H]([C@@H](C)O)NC1=O) [CyPPS10, cyclic peptide; AA1 Thr, AA2 D-Asp, AA3 Phe, AA4 D-Phe, AA5 Arg, AA6 D-Ala]
decreased activity | KLFFRA [SEQ ID NO: 7] (cyclo(K[dL]F[dF]R[dA]); SMILES CC(C)C[C@H]1NC(=O)[C@H](CCCCN)NC(=O)[C@@H](C)NC(=O)[C@H](CCCNC(=N)N)NC(=O)[C@@H](Cc2ccccc2)NC(=O)[C@H](Cc2ccccc2)NC1=O) [CyPPS7, cyclic peptide; AA1 Lys, AA2 D-Leu, AA3 Phe, AA4 D-Phe, AA5 Arg, AA6 D-Ala]
decreased activity | TLFXRA [SEQ ID NO: 18] (cyclo(T[dL]F[dPhe(4-F)]R[dA]); SMILES CC(C)C[C@H]1NC(=O)[C@H]([C@@H](C)O)NC(=O)[C@@H](C)NC(=O)[C@H](CCCNC(=N)N)NC(=O)[C@@H](Cc2ccc(F)cc2)NC(=O)[C@H](Cc2ccccc2)NC1=O) [CyPPS18, cyclic peptide; AA1 Thr, AA2 D-Leu, AA3 Phe, AA4 D-Phe (4F), AA5 Arg, AA6 D-Ala]
retained activity | TLFXRA [SEQ ID NO: 20] (cyclo(T[dL]F[dPhe(3,4-F2)]R[dA]); SMILES CC(C)C[C@H]1NC(=O)[C@H]([C@@H](C)O)NC(=O)[C@@H](C)NC(=O)[C@H](CCCNC(=N)N)NC(=O)[C@@H](Cc2ccc(F)c(F)c2)NC(=O)[C@H](Cc2ccccc2)NC1=O) [CyPPS20, cyclic peptide; AA1 Thr, AA2 D-Leu, AA3 Phe, AA4 D-Phe (3, 4F), AA5 Arg, AA6 D-Ala]
greatest loss of stimulatory activity | TLFARA [SEQ ID NO: 5] (cyclo(T[dL]F[dA]R[dA]); SMILES CC(C)C[C@H]1NC(=O)[C@H]([C@@H](C)O)NC(=O)[C@@H](C)NC(=O)[C@H](CCCNC(=N)N)NC(=O)[C@@H](C)NC(=O)[C@H](Cc2ccccc2)NC1=O) [CyPPS5, cyclic peptide; AA1 Thr, AA2 D-Leu, AA3 Phe, AA4 D-Ala, AA5 Arg, AA6 D-Ala]
maintained stimulatory activity | VLFFRA [SEQ ID NO: 9] (cyclo(V[dL]F[dF]R[dA]); SMILES CC(C)C[C@H]1NC(=O)[C@H](C(C)C)NC(=O)[C@@H](C)NC(=O)[C@H](CCCNC(=N)N)NC(=O)[C@@H](Cc2ccccc2)NC(=O)[C@H](Cc2ccccc2)NC1=O) [CyPPS9, cyclic peptide; AA1 Val, AA2 D-Leu, AA3 Phe, AA4 D-Phe, AA5 Arg, AA6 D-Ala]
stimulatory activity was preserved | TLFFAR [SEQ ID NO: 6] (cyclo(T[dL]F[dF]A[dR]); SMILES CC(C)C[C@H]1NC(=O)[C@H]([C@@H](C)O)NC(=O)[C@@H](CCCNC(=N)N)NC(=O)[C@H](C)NC(=O)[C@@H](Cc2ccccc2)NC(=O)[C@H](Cc2ccccc2)NC1=O) [CyPPS6, cyclic peptide; AA1 Thr, AA2 D-Leu, AA3 Phe, AA4 D-Phe, AA5 Ala, AA6 D-Arg]

— patent publication US20250073302A1, “CYCLIC PEPTIDES AS PROTEASOME STIMULATORS” (Purdue Research Foundation, priority 2023, published 2025)
